This note sets out measurements from US20230192857A1 (published 2023).

Like-named read-outs stand apart in the source and are kept apart here. Non-standard residues stand in square brackets, D forms with d. No end group written: not given here. pY = N[C@@H](Cc1ccc(OP(=O)(O)O)cc1)C(=O)O

Assay [1] deals with T1, hCIS-SH2-BC complex (recombinant trimeric complex of human GST-CIS-SH2 construct with Elongins B and C) (UniProt Q9NSE2 66-258; Q15370 1-118; Q15369 17-112). Briefly: ITC.
For assay [2], the target named is T1, hCIS-SH2-BC complex (recombinant …). In words: ITC. The source holds these as a separate data set. For orientation: In ITC the heat of successive injections is recorded.

For the molecule EIEACQV[pY]FTYDPYSE [phosphopeptide corresponding to Tyr355 within the IL-2Rβ (printed 'IL-2R13') cytoplasmic domain], the dissociation constant (Kd) in assay [1] and in assay [2] was 940 nM throughout.

With LSGEDDA[pY]CTFPSRDD [phosphopeptide corresponding to Tyr392 within the IL-2Rβ (printed 'IL-2R13') cytoplasmic domain], the Kd in assay [1] and in assay [2] was 1800 nM in each case.

Consider VYFTYDP[pY]SEEDPDEG [phosphopeptide corresponding to Tyr361 within the IL-2Rβ (printed 'IL-2R13') cytoplasmic domain], for which the Kd in assay [1] and in assay [2] was 1500 nM throughout.
